Measurements from patent publication US6054572.

Biological target: human fibronectin purified from a human plasma fraction on Gelatin Sepharose (human) (UniProt P02751)

In the case of “D1-D4 (709-886) polypeptide of the fibronectin binding protein of Staphylococcus aureus J2385, expressed from pBROC 520 in E. coli BL21 (DE3)”, the % Adherence Inhibition of S. aureus 8325.4 to fibronectin-coated PMMA coverslips (at 100 µg/ml D1-D4 (709-886)) is reported as 97.5% and the % Adherence Inhibition of S. aureus J2385 to fibronectin-coated PMMA coverslips (at 100 µg/ml D1-D4 (709-886)) is reported as 78.4%.
